Assay: label from the status in PepcDB records

MANKNMRNTTTKVEALIESCRSEGKWHRVIELTDELKTGSPHNECLANFLVGEARLESYLEENALASDSNFGRAKSGLAEARRFLHLALGESGQKAGIALDAYLLLAKLCFACGEYEQSLDNFVKAELNTLAEKELTLRSLKILAESYAIKGLCLEQQTTKPSSKFKKAEKDTEMISCFERASDLGLLYLQEYDLVSGSSGSSNNSTAGSTLNVNASTVQPSSSSFAISSTIPASGPSGLEMNRRMGAILETALQRAPIVLIKTEKLQEAVERYRIMLNAIETRATQSLRLTLARQLAEVLLRGVSGTIYSPPFTGKSGGGTLRGGSSKKLWKPRKYAARQQFNPRNQQEEVILLLLIAEALAVRDTVLSQSPEFRQARQHAMGNVTAVYDLLTLATVRWGLVQLLNESFEKALKFSFGEQHVWRQYGLSLMAAEKHSHALRVLQESMKLTPSDPLPCLLASRLCYESLETVKQGLDYAQQALKREVKGLRPSRSQLFVGIGHQQLAIQSNLKSERDACHKLALDALERAVQFDGNDHLAEYYLSLQYALLGQLAEALVHIRFALALRMEHAPCLHLFALLLTSSRRPREALGVVEDALHEFPDNLQLLHVKAHLQLHLEDAETALGTVQHMLAVWRDVYEAQLAGEEEKHSDTKSGVHLAHSSQMSDKDSNSVYAASLAAVSRVEQALSEAASSLSSFTQRPGPRRPWMLQIEIWLLLADVYLRIDQPNEALNCIHEASQIYPLSHQIMFMRGQVHVYLEQWFDAKQCFLNAVAANPNHTEALRALGEAHLVLGEPRLAEKMLKDAAKLDPSCPKIWFALGKVMEILGDFHASADCFATSLQLEPSCPVLPFTSIPLVFE
protein production: failed

MANKTKSKSLLEKMWRIKWWLLSIFTVLFLLFALFFPLNNYYVELPGGAFDTKEVLTVNKKADDSKGSYNFVAVAQTKATLALMLYTQFNDFAKLQTAEEATGNYSDEDFMRINQFYMETSQNQAVYQGLTLAGKEVSLEYMGVYVLQVADDSSFKGVLNIADTVTAVNGKTFDNSTDMIKYVQGLKLGSKVKVTYMRDGKEKTATGKIIKIANGKNGIGIGLTDHTEIKSPENVKFKLDGVGGPSAGLMFTLAIYDQVSGQDLKAGRKIAGTGTIEKDGAVGDIGGAYLKVKSAADSGADIFFVPNNLVTKEMKKADPDAKTNYQEAKEAAEKLGTKMKIVPVKTAQEAIDYLKKTK
protein production: failed

MANLKSLPVGDKAPEVVHMVIEVPRGSGNKYEYDPDLGAIKLDRVLPGAQFYPGDYGFIPSTLAEDGDPLDGLVLSTYPLLPGVVVEVRVVGLLLMEDEKGGDAKVIGVVAEDQRLDHIQDIGDVPEGVKQEIQHFFETYKALEAKKGKWVKVTGWRDRKAALEEVRACIARYKG
protein production: not failed

MANLLSTCTSESGNIQHISPQNAGWEYVGFDVWQLKAGESITLPSDERERCLVLVAGLASVKAADSFFYRIGQRMSPFERIPAYSVYLPHHTEAKVTAETDLELAVCSAPGFGELPVRLISPQEVGVEHRGKGRNQRLVHNILPDSQLADSLLVVEVYTNAGATSSWPAHKHDTAVEGQETYLEETYYHRFNPPQGFCLQRVYTDDRSLDECMAVYNRDVVKVPKGYHPVATIAGYDNYYLNVMAGPLRKWRFTWEENHAWINSPDYPR
protein production: not failed

MANRSHHNAGHRAMNALRKSGQKHSSESQLGSSEIGTTRHVYDVCDCLDTLAKLPDDSVQLIICDPPYNIMLADWDDHMDYIGWAKRWLAEAERVLSPTGSIAIFGGLQYQGEAGSGDLISIISHMRQNSKMLLANLIIWNYPNGMSAQRFFANRHEEIAWFAKTKKYFFDLDAVREPYDEETKAAYMKDKRLNPESVEKGRNPTNVWRMSRLNGNSLERVGHPTQKPAAVIERLVRALSHPGSTVLDFFAGSGVTARVAIQEGRNSICTDAAPVFKEYYQKQLTFLQDDGLIDKARSYEIVEGAANFGAALQRGDVAS
protein production: not failed

MANTATDQRADTLMLVHVPADRKKTYAISLMRDLWIDIPGVGESKINAALAYGGVPLMVQTVESLLQQRIDHVAMIDFQGFKGLTDALGGVEVDVRIPFAPSSGPKAGQVYDAGKQTLNGDEALAFVRERKAFSDGDYQRVRNQQAYLKAIIGKVIARETLTNPVTISNMVSAVSPFVSVDKDFDAAAIGSLALSMKDVRAQDTVMFTLPTLGTGTSPDGQSIVLADTTAIADVTAALAKDQVDAYITAHALDKGFLEHHHHHH
protein production: not failed

MANTYGGVIFLGIEEKPKGRFSVTGIAVPERVLKALWDGLNNRQRISINLLTDKMVEVIEIQGKQVIRIQVPRARRAQRPVYVGQNPLTGTYRRNYEGDYLCDEETIKRMLAEQVEEVRDARLLENYGFDDIEPNTLKAYRNQYDLTKALSALVRDGFLESGGIARGTFYFFPGEPPNAEADLVAQNYKFVEKSSPEDLLLGIIPKEIFDDLKPSSDDLKPSSDDLEPSSDDLEPSSDDWQSLMAIAVTIRNKGKVSTDIMEATILRLCQGRFLNHKQLQELLDRSYNTLRLGYLSKMHKKGQLELRYPDKLTHPNQGYRTKNSSSSDF
protein production: failed

Reference: a protein production outcome set (Wang et al. 2014)
